This experiment addresses Full-length Daxx linked to the Gal4 DNA binding domain (pAS2-1-Daxx) (mouse) (UniProt O35613). As to the kind of experiment: two-hybrid.
Sequence of UniProt O35613 (O35613 whole entry, the tested form may be a part): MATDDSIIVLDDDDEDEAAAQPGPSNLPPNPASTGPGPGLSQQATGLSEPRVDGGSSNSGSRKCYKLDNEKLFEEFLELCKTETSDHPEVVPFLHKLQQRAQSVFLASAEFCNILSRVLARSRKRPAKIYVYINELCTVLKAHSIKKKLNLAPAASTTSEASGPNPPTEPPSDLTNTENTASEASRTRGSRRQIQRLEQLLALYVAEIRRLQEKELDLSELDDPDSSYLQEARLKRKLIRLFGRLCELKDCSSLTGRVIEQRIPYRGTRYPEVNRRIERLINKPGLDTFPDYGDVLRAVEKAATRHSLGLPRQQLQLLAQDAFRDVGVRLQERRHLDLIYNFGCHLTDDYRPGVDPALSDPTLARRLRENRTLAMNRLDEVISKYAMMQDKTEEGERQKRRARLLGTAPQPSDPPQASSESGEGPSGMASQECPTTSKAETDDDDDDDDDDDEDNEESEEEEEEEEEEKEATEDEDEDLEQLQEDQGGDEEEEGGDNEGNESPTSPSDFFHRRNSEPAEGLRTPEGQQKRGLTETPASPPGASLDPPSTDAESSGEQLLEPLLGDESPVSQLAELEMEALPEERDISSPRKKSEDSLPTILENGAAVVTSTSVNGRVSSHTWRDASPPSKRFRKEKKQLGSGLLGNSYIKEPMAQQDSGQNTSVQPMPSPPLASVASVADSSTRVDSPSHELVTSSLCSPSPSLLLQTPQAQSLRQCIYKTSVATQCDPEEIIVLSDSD

The substance “Full-length PML linked to the Gal4 activation domain (pACT-2-PML) (from UniProt P29590 1-882) (natural protein)” showed a β-galactosidase expression, fold over the single-transformed colonies of 50 fold.

(Values after publication PMC2195846.)
